Target: T1, SARS-CoV-2 spike S1 domain (D614G) (SARS-CoV-2, Wuhan-Hu-1 background with …, UniProt A0A6H1PJZ3, strain)
T1 construct: also called D614G S1 variant; source: bought: Sino Biological
Assay: SPR
Details: both partners purified

B1: P4A1 (antibody, V domains shown)
VH: EVQLVESGGGLIQPGGSLRLSCAASGFIVSSNYMSWVRQAPGKGLEWVSIIYSGGSTFYADSVKGRFTISRDNSKNTLYLQMNSLRVEDTAVYYCARDLQELGSLDYWGQGTLVTVSS
VL: DIQMTQSPSSVSASVGDRVTITCRASQGISSWLAWYQQKPGKAPKLLIYAASSLQSGVPSRFSGSGSGTDFTLTISSLQPEDFATYYCQEANSFPYTFGQGTKLEIK
notes: also called P4A1 (IgG1); IgG1 form P4A1
Does B1 bind?
Result: binds
